The target in the assay is T1, human CD8 on human pan T cells (human, UniProt P01732 22-235; P10966 22-210).
T1 construct: Native CD8 on the CD4-negative population of human pan T cells
The assay is described as follows: flow cytometry, 20 nM mAb on human pan T cells. The method, then: Secondary antibodies were A647-conjugated goat anti human IgG Fc antibody at 2 μg/mL, and A488-conjugated mouse anti-human CD4 at 1 μg/mL in staining buffer. Live cells were also gated based on OKT8 control mAb binding. Percent CD8 positive population was calculated by percentage of CD8-positive cell count/live cell count.

T1 sequence (P01732 22-235, chain 1 of 2): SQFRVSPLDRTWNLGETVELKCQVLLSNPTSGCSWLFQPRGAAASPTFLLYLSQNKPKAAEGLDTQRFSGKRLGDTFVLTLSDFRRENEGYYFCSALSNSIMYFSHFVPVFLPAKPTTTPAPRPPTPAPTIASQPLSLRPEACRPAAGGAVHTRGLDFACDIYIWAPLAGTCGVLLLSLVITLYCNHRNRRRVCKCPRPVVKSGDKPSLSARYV
T1 sequence (P10966 22-210, chain 2 of 2): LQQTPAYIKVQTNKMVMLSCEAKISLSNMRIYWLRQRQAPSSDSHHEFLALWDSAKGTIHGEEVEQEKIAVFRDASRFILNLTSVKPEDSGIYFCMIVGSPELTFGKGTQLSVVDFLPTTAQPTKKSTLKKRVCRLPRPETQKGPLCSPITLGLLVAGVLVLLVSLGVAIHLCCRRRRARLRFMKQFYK

B1: CD8B248 (antibody, human IgG1, kappa, V domains shown)
VH: EVQLQQSGAELARPGASVKMSCKASGYTFTTYTMHWVKQRPGQGLEWIGYINPSSGYTKYNQKFTDKATLTADKSSSTAYMQLSSLTSEDSAVYYCARLWAYWGQGTLVTVSA
VL: DVVMTQTPLSLPVSLGDQASISCRSSQSLVHSSGNTYLHWYLQKPGQSPKLLIYKGSNRFSGVSDRFSGSGSGTDFTLKISRVEAEDLGVYFCSQSTHVPFTFGSGTKLEMKR
notes: full-length human IgG1, kappa
For the molecule B1, the “Cell Binding to Human PanT Signal/Background (of CD4 negative population)” value amounted to 20.

B2: CD8B254 (antibody, human IgG1, kappa, V domains shown)
VH: EVQLQQSGAELVKPGASVKMSCKTSGYTFSSYWITWVKQRPGQGLEWVGDIYPGSGSTNYNEKFKSKAALTVDTSSSTAFMQLNSLTSEDSAVYYCARESITTRITPFDHWGQGTTLTVSS
VL: DVVMTQTPLSLPVSLGDQASISCRSSQSLVHSSGNTYLHWYLQKPGQSPKLLIYKGSNRFSGVSDRFSGSGSGTDFTLKISRVEAEDLGVYFCSQSTHVPFTFGSGTKLEIKR
notes: full-length human IgG1, kappa
On to B2, for which the “Cell Binding to Human PanT Signal/Background (of CD4 negative population)” value is 23.

B3: CD8B311 (antibody, human IgG1, kappa, V domains shown)
VH: QVQLKESGPELVKPGASVKLSCKASGYTFTSYWMHWVKQRPGQGLEWIGMIHPNSGSTNYNEKFKSKATLTVDKSSSTAYMQLSSLTSEDSAVYYCARCGYDGAWFAYWGQGTSVTVSS
VL: DIQMTQTTSSLSASLGDRVTISCSASQGISNCLNWYQQKPDGTVKLLIHYTSSLHSGVPSRFSGGGSGTHYSLTISNLEPEDIATYYCQQYSKVPYTFGSGTKLEIKR
notes: full-length human IgG1, kappa
B3: the “Cell Binding to Human PanT Signal/Background (of CD4 negative population)” value worked out at 1.

B4: CD8B186 (antibody, human IgG1, kappa, V domains shown)
VH: QVQLQQSGAELAKPGASVKMSCKASGYIFTSYWMHWVKQRPGQGLEWIGNINPSSGYAVYNQKFKDKATLTADQSSSTAYIQLNSLTSEDSAVYYCARRVFYGDSWFAYWGQGTSVTVSS
VL: DVQMIQSPASLSASVGETVTITCRASGNIHNYLAWYQQKQGKSPQLLVYNAKTLADGVPSRFSGSGSGTQYSLKINSLQPEDFGSYYCQHFWSTTWTFGGGTKLEIKR
notes: full-length human IgG1, kappa
As to B4, the “Cell Binding to Human PanT Signal/Background (of CD4 negative population)” value was 36.

B5: CD8B192 (antibody, human IgG1, kappa, V domains shown)
VH: QVQLQQSGPVLVKPGASVKMSCKASGYTFTDYYMNWVMQSHGKSLEWIGVINPYNGGTTYNQRFTGKATLTVDKSSSTAYMELNSLTSEDSAVYYCARNYGAMDSWGQGTSVTVSS
VL: DIQMTQSPASLSASVGETVTITCRASGNIHNYLAWYQQKQGKSPQLLVSNAKTLADGVPSRFGGSGSGTQYSLKINSLQPEDFGSYYCQHFWITPPTFGAGTRLEIKR
notes: full-length human IgG1, kappa
Turning to B5, the “Cell Binding to Human PanT Signal/Background (of CD4 negative population)” value was found to be 22.

B6: CD8B337 (antibody, human IgG1, kappa, V domains shown)
VH: QVTLKESGPGKVQPSQTLSLTCSFSGFSLSTSGMGVSWIRKPSGKGLEWLAHIFWDDDRRYKSSLKSRLTISKDTSSNQVFLMITSVDTADSATYYCARRVGYGDYAYFDVWGAGTTVTVSS
VL: DIQMTQYPASLSVSVGETVTITCRASENIYSDLAWYQQKQGKSPQLLVYAATNLADGVPSRFSGSGSGTQYSLKINSLQSEDFGNYYCQHFWGTPWTFGGGTKLEIKR
notes: full-length human IgG1, kappa
As for B6, the “Cell Binding to Human PanT Signal/Background (of CD4 negative population)” value was found to be 1980.

B7: CD8B340 (antibody, human IgG1, kappa, V domains shown)
VH: QVQLQQPGAELVKPGASVRLSCKASGYTFTNYWMQWVQQRPGQGLEWIGEIDPSDTFTNYNQNFKDKATLTVDTSSSTAYLQLSSLTSEDSAVYYCARGDWDRDWYFDVWGTGTLVTVSA
VL: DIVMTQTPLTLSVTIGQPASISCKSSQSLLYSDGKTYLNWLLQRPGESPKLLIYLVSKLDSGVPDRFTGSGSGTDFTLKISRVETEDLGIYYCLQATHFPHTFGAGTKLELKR
notes: full-length human IgG1, kappa
With B7, the “Cell Binding to Human PanT Signal/Background (of CD4 negative population)” value was 8.

B8: CD8B362 (antibody, human IgG1, kappa, V domains shown)
VH: EVKLVESGAELVKPGASVKLSCTASGFNIKDTYMHWVKQRPEQGLEWIGRIDPANGHTKFDPKFQGKATITADTSSNTAYLQLSSLTSEDTAVYYCAIRFAYWGQGTLVTVSA
VL: DIQMTQSPSSLSASLGDRVSLTCRASHEISGYLSWLQQKPDGTFKRLIYAASTLDSGVPKRFSGSRSGSDYSLSISSLESEDFADYYCLQYSSYPYTFGSGTKLEMKR
notes: full-length human IgG1, kappa
For B8, the “Cell Binding to Human PanT Signal/Background (of CD4 negative population)” value is 4.

B9: CD8B245 (antibody, human IgG1, kappa, V domains shown)
VH: EFQLQQSGGGLVQPGGSLSLSCAAPGFTFTDYYMSWVRQSPGKALEWLALSRNKGNGYTTEYSASVKGRFTISRDNSQSILYLQMNVLRAEDSATYYCARTVTGTLFYYALDYWGQGTTVTVSS
VL: DIQMTQSPASLSASVGETVTITCRASENIYSYLAWYQQKQGKSPQFLVYNAKTLAAGVPSRFSGSGSGTQFSLKINRLQPEDFGTYYCQHHYGTPLTFGDGTRLEIKR
notes: full-length human IgG1, kappa
On to B9, for which the “Cell Binding to Human PanT Signal/Background (of CD4 negative population)” value was 44.

B10: CD8B366 (antibody, human IgG1, kappa, V domains shown)
VH: EVQLQQSGPELVRPGASVKLSCTASGFNIKDDYIHWVKQRPEQGLEWIGRIDPANGNPRYAPKFQDKATLTADTSSNTAYLQLSSLTSEDTAVYYCARDDEGYYYFDVWGAGTSVTVSS
VL: DIKMTQSPSYLAASPGETITINCRASKSISKYLAWYQEKPGKTNKVLIYSGSTLQSGIPSRFSGSGSGTDFTLTISSLEPEDFAIYYCQQHNEYPLTFGDGTRLEIKR
notes: full-length human IgG1, kappa
In the case of B10, the “Cell Binding to Human PanT Signal/Background (of CD4 negative population)” value stood at 318.

B11: CD8B250 (antibody, human IgG1, kappa, V domains shown)
VH: QVQLKESGPGLVAPSQSLSITCTVSGFSLSNYVVHWVRQSPGKGLEWLGVIWTDGSTDYNAAFISRLSISKDNSKSQVFFKMNSLQADDTAIYYCARNNGYFPAFFAYWGQGTLVTVSA
VL: DIVMTQSQKFMSTSVGDRVSVTCKASQNVDTDITWYQQKPGQSPKALIYSASYRYSGVPDRFTGSGSGTDFTLTITNVQSEDLAEYFCQQYNSYPLTFGSGTKLEMKR
notes: full-length human IgG1, kappa
As for B11, the “Cell Binding to Human PanT Signal/Background (of CD4 negative population)” value was found to be 61.

B12: CD8B324 (antibody, human IgG1, kappa, V domains shown)
VH: QVQLQQPGADLVKPGASVKLSCKASGYTSTSHWIHWVKQRPGQGLEWIGNIYPGSSSTNYNEKFKRMATLTVDTSSSTVYMVLSSLTSDDSAVYYCARHSPGHRDYAMDYWGLGTSVTVSS
VL: DIVMTQSQKFMPTTVGDRVSITCKASQNVGTAVAWYQQKPGQSPKLLIASASNRYTGVPDRFTGSGSGTDFTLTISTMQSEDLADYFCQQYSTYPLTFGAGTKLEMKR
notes: full-length human IgG1, kappa
For B12, the “Cell Binding to Human PanT Signal/Background (of CD4 negative population)” value is 1610.

The values are drawn from patent US20210214440A1 (Janssen / Centocor, published 2021).
